Experimental data reported in patent US20080058263A1 (published 2008).

Legend:
Assay in all cases: receptor-Fc IP
[1] = molecular target: T1, VEGFR-2-Fc (UniProt P35968 20-322)
T1 construct: domain: first 3 Ig domains; conditioned supernatant of 293T cells; also called VEGFR-2-Fc fusion protein; not shown: Fc fragment of the pIg vector
Summary of the method: (§1)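 Binding of ligand from sample supernatant measured by pentahistidine-antibody immunoprecipitation. IP mix: PBS with 1.5% BSA, 0.06% Tween 20, 3 μg/ml heparin and 400 ng/ml fusion protein, added 1:2 to sample supernatant.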

[2] = molecular target: T2, VEGFR-3-Fc (UniProt P35916 25-328)
T2 construct: domain: first three Ig domains; conditioned supernatant of 293T cells; also called VEGFR-3-Fc fusion protein; not shown: Fc fragment of the pIg vector
T2 sequence (looked up): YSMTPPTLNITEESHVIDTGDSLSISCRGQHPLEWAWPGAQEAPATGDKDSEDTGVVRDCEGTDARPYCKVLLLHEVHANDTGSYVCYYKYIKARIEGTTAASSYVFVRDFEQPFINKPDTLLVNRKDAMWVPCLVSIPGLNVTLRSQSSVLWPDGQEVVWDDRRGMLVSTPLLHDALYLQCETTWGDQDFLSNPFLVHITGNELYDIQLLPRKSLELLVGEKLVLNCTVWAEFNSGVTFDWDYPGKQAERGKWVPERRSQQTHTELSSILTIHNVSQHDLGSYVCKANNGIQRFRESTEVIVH
Summary of the method: as §1

[3] = molecular target: T3, VEGFR-1-Fc (UniProt P17948 27-338)
T3 construct: domain: first three Ig domains; expressed in Drosophila S2 cells, purified on Protein A sepharose; also called VEGFR-1-Fc fusion protein; not shown: Fc fragment from the Signal-pIgPlus vector
Summary of the method: as §1

Measured: binding result

T3 sequence (P17948 27-338): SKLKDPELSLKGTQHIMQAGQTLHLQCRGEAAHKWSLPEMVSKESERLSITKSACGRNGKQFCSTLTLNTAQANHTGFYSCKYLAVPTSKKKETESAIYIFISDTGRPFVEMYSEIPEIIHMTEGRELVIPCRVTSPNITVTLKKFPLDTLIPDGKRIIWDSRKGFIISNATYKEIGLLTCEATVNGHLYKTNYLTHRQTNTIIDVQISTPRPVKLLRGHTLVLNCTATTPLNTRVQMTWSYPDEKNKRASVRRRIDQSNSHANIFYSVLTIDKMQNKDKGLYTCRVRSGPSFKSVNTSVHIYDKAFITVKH
T1 sequence (P35968 20-322): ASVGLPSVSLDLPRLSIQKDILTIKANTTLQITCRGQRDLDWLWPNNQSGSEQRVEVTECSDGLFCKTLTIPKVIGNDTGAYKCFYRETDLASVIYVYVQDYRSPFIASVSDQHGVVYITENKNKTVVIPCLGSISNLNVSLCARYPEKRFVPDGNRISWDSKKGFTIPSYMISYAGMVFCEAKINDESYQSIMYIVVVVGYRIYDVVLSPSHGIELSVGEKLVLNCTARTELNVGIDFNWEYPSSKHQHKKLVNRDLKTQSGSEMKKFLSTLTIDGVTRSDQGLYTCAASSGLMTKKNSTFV

B1: 32-6 (ligand)
chain: GQNHHEVVKSIDNEWRKTQCMPIETLVDIFQEFGVATNTFFKPPCVSVYRCGGCCNDEGLECMNTSTSYLSKTLFEIKPHQGQHIGEMSFANHTSCRCMSKLD
no binding: all assays above

B2: 32-1 (ligand)
chain: GQNHHEVVKSIDNEWRKTQCMPIETLVDIFQEFGVATNTFFKPPCVSVYRCGGCCNDEGLECVPTEESNITMQIMRIKPHQGQHIGEMSFLQHNKCECRPKKD
no binding: all assays above

B3: 32-5 (ligand)
chain: GQNHHEVVKSIDNEWRKTQCMPIETLVDIFQEFGVATNTFFKPPCVSVYRCGGCCNDEGLECVPTEESNITMQIMRIKPHQGQHIGEMSFANHTSCRCMSKLD
no binding: all assays above

B4: 32-3 (ligand)
chain: GQNHHEVVKSIDNEWRKTQCMPIETLVDIFQEFGVATNTFFKPPCVSVYRCGGCCNSEGLQCVPTEESNITMQIMRIKPHQGQHIGEMSFLQHNKCECRPKKD
no binding: all assays above

B5: 24-12 (ligand)
chain: AHYNTEILKSIDNEWRKTQCMPREVCIDVGKEFGVATNTFFKPSCVPLMRCGGCCNSEGLQCMNTSTSYLSKTLFEITVPLSQGPKPVTISFLQHNKCECRPKKD
no binding: all assays above

B6: 21-12 (ligand)
chain: AHYNTEILKSIDNEWRKTQCMPREVCIDVGKEYPDEIEYIFKPSCVPLMRCGGCCNSEGLQCMNTSTSYLSKTLFEITVPLSQGPKPVTISFLQHNKCECRPKKD
no binding: all assays above

B7: 64-12 (ligand)
chain: GQNHHEVVKFMDVYQRSYCHPREVCIDVGKEFGVATNTFFKPSCVPLMRCGGCCNSEGLQCMNTSTSYLSKTLFEITVPLSQGPKPVTISFLQHNKCECRPKKD
no binding: all assays above

B8: 64-7 (ligand)
chain: GQNHHEVVKFMDVYQRSYCHPREVCIDVGKEFGVATNTFFKPSCVPLMRCGGCCNSEGLQCVPTEESNITMQIMRIKPHQGQHIGEMSFANHTSCRCMSKLD
no binding: all assays above

B9: 64-9 (ligand)
chain: GQNHHEVVKFMDVYQRSYCHPREVCIDVGKEFGVATNTFFKPSCVPLMRCGGCCNDEGLECVPTEESNITMQIMRITVPLSQGPKPVTISFLQHNKCECRPKKD
no binding: all assays above

B10: 64-11 (ligand)
chain: GQNHHEVVKFMDVYQRSYCHPREVCIDVGKEFGVATNTFFKPSCVPLMRCGGCCNSEGLQCVPTEESNITMQIMRITVPLSQGPKPVTISFLQHNKCECRPKKD
no binding: all assays above

B11: 24-11 (ligand)
chain: AHYNTEILKSIDNEWRKTQCMPREVCIDVGKEFGVATNTFFKPSCVPLMRCGGCCNSEGLQCVPTEESNITMQIMRITVPLSQGPKPVTISFLQHNKCECRPKKD
no binding: all assays above

B12: 24-13 (ligand)
chain: AHYNTEILKSIDNEWRKTQCMPREVCIDVGKEFGVATNTFFKPSCVPLMRCGGCCNDEGLECVPTEESNITMQIMRITVPLSQGPKPVTISFANHTSCRCMSKLD
no binding: all assays above

B13: 24-15 (ligand)
chain: AHYNTEILKSIDNEWRKTQCMPREVCIDVGKEFGVATNTFFKPSCVPLMRCGGCCNSEGLQCVPTEESNITMQIMRITVPLSQGPKPVTISFANHTSCRCMSKLD
no binding: all assays above

B14: 64-6 (ligand)
chain: GQNHHEVVKFMDVYQRSYCHPREVCIDVGKEFGVATNTFFKPSCVPLMRCGGCCNDEGLECMNTSTSYLSKTLFEIKPHQGQHIGEMSFANHTSCRCMSKLD
no binding: all assays above

B15: 83-6 (ligand)
chain: AHYNTEILKFMDVYQRSYCHPIETLVDIFQEYPDEIEYIFKPPCVSVYRCGGCCNDEGLECMNTSTSYLSKTLFEIKPHQGQHIGEMSFANHTSCRCMSKLD
no binding: all assays above

B16: 24-2 (ligand)
chain: AHYNTEILKSIDNEWRKTQCMPREVCIDVGKEFGVATNTFFKPSCVPLMRCGGCCNDEGLECMNTSTSYLSKTLFEIKPHQGQHIGEMSFLQHNKCECRPKKD
no binding: all assays above

B17: 24-8 (ligand)
chain: AHYNTEILKSIDNEWRKTQCMPREVCIDVGKEFGVATNTFFKPSCVPLMRCGGCCNSEGLQCMNTSTSYLSKTLFEIKPHQGQHIGEMSFANHTSCRCMSKLD
no binding: all assays above

B18: 24-4 (ligand)
chain: AHYNTEILKSIDNEWRKTQCMPREVCIDVGKEFGVATNTFFKPSCVPLMRCGGCCNSEGLQCMNTSTSYLSKTLFEIKPHQGQHIGEMSFLQHNKCECRPKKD
no binding: all assays above
